± gives the standard deviation of the averaged measurements.
Assay: total protein half-life in vivo (active degradation + dilution); higher = more stable protein
[1] = E. coli NCM3722 delta-clpP delta-lon delta-hslV, growth: N-lim chemostat, doubling time 6 h
[2] = E. coli NCM3722 delta-clpP, growth: N-lim chemostat, doubling time 6 h
[3] = E. coli NCM3722 delta-lon, growth: N-lim chemostat, doubling time 6 h
[4] = E. coli NCM3722 delta-smpB, growth: N-lim chemostat, doubling time 6 h
[5] = wild type E. coli NCM3722, growth: C-lim chemostat, doubling time 3 h
[6] = wild type E. coli NCM3722, growth: C-lim chemostat, doubling time 6 h
[7] = wild type E. coli NCM3722, growth: C-lim chemostat, doubling time 12 h
[8] = wild type E. coli NCM3722, growth: N-lim chemostat, doubling time 12 h
[9] = wild type E. coli NCM3722, growth: P-lim chemostat, doubling time 6 h
[10] = wild type E. coli NCM3722, growth: P-lim chemostat, doubling time 12 h
[11] = E. coli NCM3722 delta-hslV, growth: N-lim chemostat, doubling time 6 h
[12] = wild type E. coli NCM3722, growth: N-lim chemostat, doubling time 6 h

Sequence | total protein half-life in vivo [1] [h] | total protein half-life in vivo [2] [h] | total protein half-life in vivo [3] [h] | total protein half-life in vivo [4] [h] | total protein half-life in vivo [5] [h] | total protein half-life in vivo [6] [h] | total protein half-life in vivo [7] [h] | total protein half-life in vivo [8] [h] | total protein half-life in vivo [9] [h] | total protein half-life in vivo [10] [h] | total protein half-life in vivo [11] [h] | total protein half-life in vivo [12] [h]
MQFNIPTLLTLFRVILIPFFVLVFYLPVTWSPFAAALIFCVAAVTDWFDGFLARRWNQSTRFGAFLDPVADKVLVAIAMVLVTEHYHSWWVTLPAATMIAREIIISALREWMAELGKRSSVAVSWIGKVKTTAQMVALAWLLWRPNIWVEYAGIALFFVAAVLTLWSMLQYLSAARADLLDQ [P0ABF8] | 7.82 | 6.476 ± 0.013 | 5.76 | 5.9 | 3.1 ± 0.097 | 5.64 ± 0.51 | 15.4 | 9.62 ± 4.9 | 6.75 ± 1.5 | 12.1 ± 1.3 | – | –
MQIIFGEKCVSLLRLFFAAVLMLWCAQTAAYSGQCHTTQGNPYIGVNFGVKTLEEEANTAGVVKDKFYQWNESNDYYVSCDCDKDNVRSGRWAFAADSPLVYLGDNWYKINDYLAAKVLLQVKGSSPTAVPFENVGTGGDTRWHICDPGGQRLGGQGASGNSGSFSLKILQPFVGSVVIPPMALARLYECYNIPAGDSCTTTGTPVLVYYLSGTINSLGSCSVNAGETIEVDLGDVFAANFRVVGHKPLGARTAELAIPVRCNTGNAGLVNVNLSLTATTDPSYPQAIKTSRPGVGVVVTDSQNNIISPAGGTLPLSIPDDADSIARMNVYPVSTTGVPPETGRFEATATVRINFD | 5.52 ± 2.1 | 4.19 | 6.21 ± 1.1 | 5.24 ± 0.2 | – | 5.54 ± 0.6 | 9.76 | 11.6 ± 0.54 | 6 | 12 ± 1.1 | 5.902 ± 0.037 | 7.57
MQIVMFDRQSIFIHGMKISLQQRIPGVSIQGASQADELWQKLESYPEALVMLDGDQDGEFCYWLLQKTVVQFPEVKVLITATDCNKRWLQEVIHFNVLAIVPRDSTVETFALAVNSAAMGMMFLPGDWRTTPEKDIKDLKSLSARQREILTMLAAGESNKEIGRALNISTGTVKAHLESLYRRLEVKNRTQAAMMLNISS | 4.46 | – | – | – | – | – | – | – | – | – | – | –
MQKAQRIIKTYRRNRMIVCTICALVTLASTLSVRFISQRNLNQQRVVQFANHAVEELDKVLLPLQAGSEVLLPLIGLPCSVAHLPLRKQAAKLQTVRSIGLVQDGTLYCSSIFGYRNVPVVDILAELPAPQPLLRLTIDRALIKGSPVLIQWTPAAGSSNAGVMEMINIDLLTAMLLEPQLPQISSASLTVDKRHLLYGNGLVDSLPQPEDNENYQVSSQRFPFTINVNGPGATALAWHYLPTQLPLAVLLSLLVGYIAWLATAYRMSFSREINLGLAQHEFELFCQPLLNARSQQCIGVEILLRWNNPRQGWISPDVFIPIAEEHHLIVPLTRYVMAETIRQRHVFPMSSQFHVGINVAPSHFRRGVLIKDLNQYWFSAHPIQQLILEITERDALLDVDYRIARELHRKNVKLAIDDFGTGNSSFSWLETLRPDVLKIDKSFTAAIGSDAVNSTVTDIIIALGQRLNIELVAEGVETQEQAKYLRRHGVHILQGYLYAQPMPLRDFPKWLAGSQPPPARHNGHITPIMPLR | 4.94 | 2.57 | – | – | – | – | – | – | – | – | – | –
MQKDALNNVHITDEQVLMTPEQLKAAFPLSLQQEAQIADSRKSISDIIAGRDPRLLVVCGPCSIHDPETALEYARRFKALAAEVSDSLYLVMRVYFEKPRTTVGWKGLINDPHMDGSFDVEAGLQIARKLLLELVNMGLPLATEALDPNSPQYLGDLFSWSAIGARTTESQTHREMASGLSMPVGFKNGTDGSLATAINAMRAAAQPHRFVGINQAGQVALLQTQGNPDGHVILRGGKAPNYSPADVAQCEKEMEQAGLRPSLMVDCSHGNSNKDYRRQPAVAESVVAQIKDGNRSIIGLMIESNIHEGNQSSEQPRSEMKYGVSVTDACISWEMTDALLREIHQDLNGQLTARVA | 3.13 ± 0.21 | 1.05 ± 0.12 | 3.06 ± 3 | 0.903 ± 0.017 | 2.24 ± 0.07 | 2.79 ± 0.37 | 3.84 ± 0.57 | 1.81 | 1.57 | 3.5 ± 0.6 | 0.859 ± 0.25 | 0.94
MQKFDTRTFQGLILTLQDYWARQGCTIVQPLDMEVGAGTSHPMTCLRELGPEPMAAAYVQPSRRPTDGRYGENPNRLQHYYQFQVVIKPSPDNIQELYLGSLKELGMDPTIHDIRFVEDNWENPTLGAWGLGWEVWLNGMEVTQFTYFQQVGGLECKPVTGEITYGLERLAMYIQGVDSVYDLVWSDGPLGKTTYGDVFHQNEVEQSTYNFEYADVDFLFTCFEQYEKEAQQLLALENPLPLPAYERILKAAHSFNLLDARKAISVTERQRYILRIRTLTKAVAEAYYASREALGFPMCNKDK | 6.13 ± 0.15 | 6.28 ± 1.2 | 6.54 ± 0.34 | 4.88 ± 0.31 | 3.4 ± 0.69 | 6.44 ± 0.24 | – | – | 6.78 ± 1.4 | 13.3 ± 0.41 | 6.72 ± 0.52 | 6.04 ± 0.12
MQKLINSVQNYAWGSKTALTELYGMENPSSQPMAELWMGAHPKSSSRVQNAAGDIVSLRDVIESDKSTLLGEAVAKRFGELPFLFKVLCAAQPLSIQVHPNKHNSEIGFAKENAAGIPMDAAERNYKDPNHKPELVFALTPFLAMNAFREFSEIVSLLQPVAGAHPAIAHFLQQPDAERLSELFASLLNMQGEEKSRALAILKSALDSQQGEPWQTIRLISEFYPEDSGLFSPLLLNVVKLNPGEAMFLFAETPHAYLQGVALEVMANSDNVLRAGLTPKYIDIPELVANVKFEAKPANQLLTQPVKQGAELDFPIPVDDFAFSLHDLSDKETTISQQSAAILFCVEGDATLWKGSQQLQLKPGESAFIAANESPVTVKGHGRLARVYNKL | 4.5 ± 0.45 | 4.28 ± 0.05 | 4.64 ± 0.25 | 4.506 ± 0.036 | 3.03 ± 0.032 | 5.48 ± 0.18 | 10.7 ± 0.47 | 7.24 ± 0.34 | 5.71 ± 0.53 | 10.9 ± 0.41 | 5.01 ± 0.19 | 4.46 ± 0.15
MQKNAAHTYAISSLLVLSLTGCAWIPSTPLVQGATSAQPVPGPTPVANGSIFQSAQPINYGYQPLFEDRRPRNIGDTLTIVLQENVSASKSSSANASRDGKTNFGFDTVPRYLQGLFGNARADVEASGGNTFNGKGGANASNTFSGTLTVTVDQVLVNGNLHVVGEKQIAINQGTEFIRFSGVVNPRTISGSNTVPSTQVADARIEYVGNGYINEAQNMGWLQRFFLNLSPM [P0A6S0] | 4.87 ± 0.27 | 5.09 ± 0.14 | – | – | 2.82 ± 0.29 | 4.64 ± 0.58 | 7.92 ± 0.56 | 9.12 | 5.6 | 11.5 ± 0.65 | – | 4.97
MQKQAELYRGKAKTVYSTENPDLLVLEFRNDTSAGDGARIEQFDRKGMVNNKFNYFIMSKLAEAGIPTQMERLLSDTECLVKKLDMVPVECVVRNRAAGSLVKRLGIEEGIELNPPLFDLFLKNDAMHDPMVNESYCETFGWVSKENLARMKELTYKANDVLKKLFDDAGLILVDFKLEFGLYKGEVVLGDEFSPDGSRLWDKETLEKMDKDRFRQSLGGLIEAYEAVARRLGVQLD [P0A7D7] | 4.82 ± 0.52 | 5.09 ± 0.82 | 5.32 ± 0.32 | 4.74 ± 0.15 | 3.26 ± 0.21 | 5.98 ± 0.26 | 10.8 ± 0.71 | 8 ± 0.35 | 5.28 ± 0.41 | 11.8 ± 0.46 | 4.79 ± 0.36 | 4.61 ± 0.12
